# Test results taken from US20210324080A1 (JIANGSU HUAIYU PHARMACEUTICAL, published 2021).
# T1: human CTLA-4 (Y201V), full length, on transfected cells (human, UniProt P16410 36-223)
# T1 construct: whole, on cells; also called hCTLA-4; HEK293-hCTLA-4 (Y201V)
# T1 sequence (looked up): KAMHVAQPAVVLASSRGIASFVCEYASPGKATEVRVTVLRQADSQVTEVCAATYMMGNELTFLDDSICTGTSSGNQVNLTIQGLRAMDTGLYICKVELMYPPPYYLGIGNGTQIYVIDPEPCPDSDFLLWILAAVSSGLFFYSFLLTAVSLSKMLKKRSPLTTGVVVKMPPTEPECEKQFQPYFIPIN
# T2: CTLA-4-hFc (immunogen A; hFc-labeled CTLA-4 extracellular domain protein) (human, UniProt P16410 36-161)
# T2 construct: range 36-161; Made in HEK293 cells, purified on protein A; also called CLTA-4-hFc; CTLA-4 protein; not shown: human IgG Fc fragment (hFc) of the pCpC vector
# T2 sequence (looked up): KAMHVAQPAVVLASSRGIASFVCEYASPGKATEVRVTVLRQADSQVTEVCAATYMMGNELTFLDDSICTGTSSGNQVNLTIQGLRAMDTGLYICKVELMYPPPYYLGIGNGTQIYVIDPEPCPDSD
# Assays:
# [1] = target: T3, monkey CTLA-4, full length, on transfected HEK293 cells (monkey); test: FACS, 293F-cCTLA-4 cells
# T3 construct: whole, on cells; also called cCTLA-4; HEK293-cCTLA-4
# Source text: The pIRES plasmid with the monkey-derived CTLA-4 full-length gene was transfected into the HEK293 cell line to construct a HEK293 stable cell line containing monkey CTLA-4 (herein referred to as HEK293-cCTLA-4 stable cell line), wherein the database accession number of the monkey CTLA-4 nucleotide sequence is XM_005574014.1. The HEK293-hCTLA-4 stable cell line and HEK293-cCTLA-4 stable cell line were expanded in a T-75 cell culture flask to a 90% confluence. The medium was aspirated, and the cells were washed with HBSS buffer (Hanks Balanced Salt Solution, purchased from Invitrogen) twice, then treated with an enzyme-free cell dissociation fluid (Versene solution, purchased from Life technology) and the cells were collected. The cells were washed with HBSS buffer twice. After counted, the cells were diluted with HBSS buffer to 2×10⁶ cells per ml, added with 1% goat serum blocking solution, wherein the percentage was the mass percantage. Cells were incubated on ice for 30 minutes, then washed twice with HBSS buffer by centrifugation. The collected cells were suspended in the FACS buffer (HBSS containing 1% BSA, wherein the percentage was the mass percantage) to 2×10⁶ cells/ml, added as 100 microliters per well to a 96-well FACS reaction plate, added with 100 microliters per well of the purified CTLA-4 antibody sample to be tested, incubated on ice for 2 hours. The plate was washed twice with the FACS buffer by centrifugation, added with 100 microliters of fluorescent (Alexa 488)-labeled secondary antibodies (purchased from Invitrogen) per well, and incubated on ice for 1 hour. The plate was washed 3 times with FACS buffer by centrifugation, added with 100 μl fixative solution [4% (v/v) Paraformaldehyde] per well to suspend the cells. 10 minutes later, it was washed 2 times with FACS buffer by centrifugation. The cells were suspended with 100 microliters of FACS buffer, FACS (FACS Calibur, purchased from BD) was used for detection and the results were analyzed.
# [2] = target: T1, human CTLA-4 (Y201V), full length, on …; test: FACS, CHOK1-hCTLA-4 cells
# [3] = target: T2, CTLA-4-hFc (immunogen A; hFc-labeled …); test: ELISA, coated CTLA-4-hFc, competitor biotin-B7.1-hFc
# Description: (§1) CTLA-4 extracellular domain protein (CTLA-4-hFc) was diluted with PBS to a final concentration of 1.0 μg/mL, and then added to a 96-well ELISA plate as 100 μl per well. The plate was covered with a plastic film and incubated overnight at 4° C. The plate was washed twice with plate washing solution [PBS containing 0.01% (v/v) Tween 20] on the next day, and added with blocking solution [PBS containing 0.01% (v/v) Tween 20 and 1% (w/w) BSA] and blocked at room temperature for 2 hours. […] After 2 hours, the plate was washed 3 times with a plate washing solution [PBS containing 0.01% (v/v) Tween 20]. HRP (horseradish peroxidase) labeled avidin diluent (purchased from Sigma) was added 100 microliters per well, and after the plate was incubated for 2 hours at 37° C., it was washed with plate washing solution [PBS containing 0.01% (v/v) Tween 20] for 3 times. […] TMB substrate was added to each well. After incubated at room temperature for 30 minutes, the plate was added with […] stop solution (1.0N HCl) to each well. An ELISA plate reader (SpectraMax 384plus, Molecular Device) was used to read the A450 nm value.
# [4] = target: T2, CTLA-4-hFc (immunogen A; hFc-labeled …); test: ELISA, coated CTLA-4-hFc, competitor biotin-B7.2-hFc
# Description: as §1
# [5] = target: T2, CTLA-4-hFc (immunogen A; hFc-labeled …); test: competition ELISA: CTLA-4-hFc coated, antibody titrated, blocked ligand biotin-labeled B7.1-hFc, HRP-avidin, A450, inhibition (%)
# Description: as §1
# [6] = target: T2, CTLA-4-hFc (immunogen A; hFc-labeled …); test: competition ELISA: CTLA-4-hFc coated, antibody titrated, blocked ligand biotin-labeled B7.2-hFc, HRP-avidin, A450, inhibition (%)
# Description: as §1
binder,measurement,setting,value
"31C12F3 (chimeric antibody purified from hybridoma supernatant) (antibody, V domains shown, also called mAb010) VH: QVQLVESGGGVVQPGRSLILSCAASGFTFSSYGMHWVRQAPGKGLEWVAVVWYDGSNKYYADSVKGRFTISRDNSKNTLYLQMSSLRAEDTAVYYCARGGIVVPGLFEYWGQGSLVTVSS VL: DIQMTQSPSSLSASVGDRVAITCRTSQSISNLLNWYQQKPGKAPELLIYAPSSFQSGVPSRFRGSGSGTDFTLTISSLQPEDFATYYCQQSYSTPFTFGPGTKVDIK",MFI at 0.000128 nM,[1],2.4
same,MFI at 0.0128 nM,[1],34.3
same,MFI at 0.064 nM,[1],97.7
same,MFI at 0.32 nM,[1],261
same,MFI at 1.6 nM,[1],455
same,MFI at 8 nM,[1],654
same,MFI at 40 nM,[1],712
same,MFI at 200 nM,[1],668
same,MFI at 0.07 nM,[2],27.6
same,MFI at 0.67 nM,[2],95
same,MFI at 6.67 nM,[2],386
same,MFI at 66.67 nM,[2],469
same,Inhibition rate (%) at 0.00091 nM,[3],0%
same,Inhibition rate (%) at 0.091 nM,[3],1.7%
same,Inhibition rate (%) at 0.274 nM,[3],25.7%
same,Inhibition rate (%) at 0.823 nM,[3],72.2%
same,Inhibition rate (%) at 2.5 nM,[3],87.7%
same,Inhibition rate (%) at 7.4 nM,[3],89.6%
same,Inhibition rate (%) at 22.2 nM,[3],93.6%
same,Inhibition rate (%) at 66.7 nM,[3],94.4%
same,Inhibition rate (%) at 0.00091 nM,[4],0%
same,Inhibition rate (%) at 0.091 nM,[4],-8.8%
same,Inhibition rate (%) at 0.274 nM,[4],17.1%
same,Inhibition rate (%) at 0.823 nM,[4],60.2%
same,Inhibition rate (%) at 2.5 nM,[4],83.6%
same,Inhibition rate (%) at 7.4 nM,[4],89.9%
same,Inhibition rate (%) at 22.2 nM,[4],92.1%
same,Inhibition rate (%) at 66.7 nM,[4],92.8%
same,IC50 (read off the curve),[5],~0.4 nM
same,IC50 (read off the curve),[6],~0.5 nM
